From patent US10597433B2, “Peptides and combination of peptides for use in immunotherapy against small cell lung cancer and other cancers” (Immatics Biotechnologies GmbH, priority 2015, dated 2020)

What was measured:
CD8+ T cells = test: In vitro T-cell priming assay with aAPCs loaded with peptide/MHC complexes and anti-CD28 antibody, pMHC multimer readout; type: cell-based, human; settings: for Wells positive [%]: HLA-A*02 restricted peptides, CD8+ T cells of healthy donors, Table 10B; for wells (in vitro immunogenicity, positive wells): CD8+ T cells of healthy HLA-A*02 donors, Table 10A
Description: In order to obtain information regarding the immunogenicity of the TUMAPs of the present invention, the inventors performed investigations using an in vitro T-cell priming assay based on repeated stimulations of CD8+ T cells with artificial antigen presenting cells (aAPCs) loaded with peptide/MHC complexes and anti-CD28 antibody.
In order to perform in vitro stimulations by artificial antigen presenting cells loaded with peptide-MHC complex (pMHC) and anti-CD28 antibody, the inventors first isolated CD8+ T cells from fresh HLA-A*02 leukapheresis products via positive selection using CD8 microbeads (Miltenyi Biotec, Bergisch-Gladbach, Germany) of healthy donors obtained from the University clinics Mannheim, Germany, after informed consent.
PBMCs and isolated CD8+ lymphocytes were incubated in T-cell medium (TCM) until use consisting of RPMI-Glutamax (Invitrogen, Karlsruhe, Germany) supplemented with 10% heat inactivated human AB serum (PAN-Biotech, Aidenbach, Germany), 100 U/ml Penicillin/100 μg/ml Streptomycin (Cambrex, Cologne, Germany), 1 mM sodium pyruvate (CC Pro, Oberdorla, Germany), 20 μg/ml Gentamycin (Cambrex). 2.5 ng/ml IL-7 (PromoCell, Heidelberg, Germany) and 10 U/ml IL-2 (Novartis Pharma, Nürnberg, Germany) were also added to the TCM at this step.
Generation of pMHC/anti-CD28 coated beads, T-cell stimulations and readout was performed in a highly defined in vitro system using four different pMHC molecules per stimulation condition and 8 different pMHC molecules per readout condition.
The purified co-stimulatory mouse IgG2a anti human CD28 Ab9.3 (Jung et al., 1987) was chemically biotinylated using Sulfo-N-hydroxysuccinimidobiotin as recommended by the manufacturer (Perbio, Bonn, Germany). Beads used were 5.6 μm diameter streptavidin coated polystyrene particles (Bangs Laboratories, Ill., USA).
800.000 beads/200 μl were coated in 96-well plates in the presence of 4×12.5 ng different biotin-pMHC, washed and 600 ng biotin anti-CD28 were added subsequently in a volume of 200 μl. Stimulations were initiated in 96-well plates by co-incubating […] CD8+ T cells with 2×10^5 washed coated beads in 200 μl TCM supplemented with 5 ng/ml IL-12 (PromoCell) for 3 days at 37° C. Half of the medium was then exchanged by fresh TCM supplemented with 80 Uml IL-2 and incubating was continued for 4 days at 37° C. This stimulation cycle was performed for a total of three times. For the pMHC multimer readout using 8 different pMHC molecules per condition, a two-dimensional combinatorial coding approach was used as previously described (Andersen et al., 2012) with minor modifications encompassing coupling to 5 different fluorochromes. Finally, multimeric analyses were performed by staining the cells with Live/dead near IR dye (Invitrogen, Karlsruhe, Germany), CD8-FITC antibody clone SK1 (BD, Heidelberg, Germany) and fluorescent pMHC multimers. For analysis, a BD LSRII SORP cytometer equipped with appropriate lasers and filters was used. Peptide specific cells were calculated as percentage of total CD8+ cells. Evaluation of multimeric analysis was done using the FlowJo software (Tree Star, Oreg., USA). In vitro priming of specific multimer+ CD8+ lymphocytes was detected by comparing to negative control stimulations.

HLA-A*02:01 = HLA-A*02:01 (Homo sapiens, UniProt P04439, D140Y/D185E/D98H/E176V/E277Q/G131W/G231S/I119V/I121R/I166T/I218V/L300P/L318F/N151K/N90K/P208A/P217A/Q86G/Q94H/R138H/R169H/T345S); test: MHC binding assay: UV-ligand exchange with ELISA detection of β2m of stabilized MHC complexes; settings: binding to HLA-A*02:01
Description: Candidate peptides for T cell based therapies according to the present invention were further tested for their MHC binding capacity (affinity). The individual peptide-MHC complexes were produced by UV-ligand exchange, where a UV-sensitive peptide is cleaved upon UV-irradiation, and exchanged with the peptide of interest as analyzed. Only peptide candidates that can effectively bind and stabilize the peptide-receptive MHC molecules prevent dissociation of the MHC complexes. To determine the yield of the exchange reaction, an ELISA was performed based on the detection of the light chain (β2m) of stabilized MHC complexes. The assay was performed as generally described in Rodenko et al. (Rodenko et al., 2006).
96 well MAXISorp plates (NUNC) were coated over night with 2 μg/ml streptavidin in PBS at room temperature, washed 4× and blocked for 1 h at 37° C. in 2% BSA containing blocking buffer. Refolded HLA-A*02:01/MLA-001 monomers served as standards, covering the range of 15-500 ng/ml. Peptide-MHC monomers of the UV-exchange reaction were diluted 100 fold in blocking buffer. Samples were incubated for 1 h at 37° C., washed four times, incubated with 2 μg/ml HRP conjugated anti-β2m for 1 h at 37° C., washed again and detected with TMB solution that is stopped with […]. Absorption was measured at 450 nm. Candidate peptides that show a high exchange yield (preferably higher than 50%, most preferred higher than 75%) are generally preferred for a generation and production of antibodies or fragments thereof, and/or T cell receptors or fragments thereof, as they show sufficient avidity to the MHC molecules and prevent dissociation of the MHC complexes.

| Substance | Peptide exchange (MHC class I binding score, peptide exchange yield) (HLA-A*02:01) | Wells positive [%] (CD8+ T cells) | wells (in vitro immunogenicity, positive wells) (CD8+ T cells) |
| --- | --- | --- | --- |
| 39 (GLDPTQFRV; listed as Homo sapiens) [compound 39] | +++ (≥50 = +++) | ++++ (≥70 = ++++) | – |
| 130 (SLYDNQITTV; listed as Homo sapiens) [compound 130] | – | – | ++ (20%-49% = ++) |
| 80 (ILMDPSPEYA; listed as Homo sapiens) [compound 80] | +++ (≥50 = +++) | +++ (50%-69% = +++) | – |
| 2 (VMFNFPDQATV; listed as Homo sapiens) [compound 2] | +++ (≥50 = +++) | + (<20% = +) | – |
| 132 (NLLAEIHGV; listed as Homo sapiens) [compound 132] | – | – | + (<20% = +) |
| 4 (GLLDPGMLVNI; listed as Homo sapiens) [compound 4] | +++ (≥50 = +++) | ++ (20%-49% = ++) | – |
| 6 (SIMDYVVFV; listed as Homo sapiens) [compound 6] | ++++ (≥75% = ++++) | + (<20% = +) | – |
| 11 (KLFAIPILL; listed as Homo sapiens) [compound 11] | +++ (≥50 = +++) | ++++ (≥70 = ++++) | – |
| 13 (FLTAFLVQI; listed as Homo sapiens) [compound 13] | +++ (≥50 = +++) | – | – |
| 40 (GLLEVQVEV; listed as Homo sapiens) [compound 40] | +++ (≥50 = +++) | – | – |
| 24 (FLMEEVHMI; listed as Homo sapiens) [compound 24] | +++ (≥50 = +++) | – | – |
| 38 (GLISSLNEI; listed as Homo sapiens) [compound 38] | ++++ (≥75% = ++++) | – | – |
| 25 (GLSETILAV; listed as Homo sapiens) [compound 25] | ++++ (≥75% = ++++) | – | – |
| 26 (KMLDEAVFQV; listed as Homo sapiens) [compound 26] | ++++ (≥75% = ++++) | – | – |
| 62 (VMLPIGAVVMV; listed as Homo sapiens) [compound 62] | +++ (≥50 = +++) | – | – |
| 128 (SLAPAGVIRV; listed as Homo sapiens) [compound 128] | – | – | + (<20% = +) |
| 79 (RLLEPAQVQQL; listed as Homo sapiens) [compound 79] | +++ (≥50 = +++) | – | – |
| 49 (RLALNTPKV; listed as Homo sapiens) [compound 49] | ++ (≥20% = ++) | – | – |
| 129 (RVADYIVKV; listed as Homo sapiens) [compound 129] | – | – | + (<20% = +) |

The next lines start with results.

| Peptide exchange (MHC class I binding score, peptide exchange yield) (HLA-A*02:01) | Substance | Wells positive [%] (CD8+ T cells) | wells (in vitro immunogenicity, positive wells) (CD8+ T cells) |
| --- | --- | --- | --- |
| +++ (≥50 = +++) | 110 (GLTETGLYRI; listed as Homo sapiens) [compound 110] | +++ (50%-69% = +++) | – |
| +++ (≥50 = +++) | 82 (ALSSVIKEL; listed as Homo sapiens) [compound 82] | + (<20% = +) | – |
| +++ (≥50 = +++) | 93 (ALRETVVEV; listed as Homo sapiens) [compound 93] | – | – |
| +++ (≥50 = +++) | 114 (ALLEPGGVLTI; listed as Homo sapiens) [compound 114] | – | – |
| ++++ (≥75% = ++++) | 109 (SLFERLVVL; listed as Homo sapiens) [compound 109] | – | – |
| ++++ (≥75% = ++++) | 107 (AMYGTKLETI; listed as Homo sapiens) [compound 107] | – | – |
| +++ (≥50 = +++) | 115 (ALLPSDCLQEA; listed as Homo sapiens) [compound 115] | – | – |
| +++ (≥50 = +++) | 84 (KMFENEFLL; listed as Homo sapiens) [compound 84] | – | – |
| +++ (≥50 = +++) | 89 (IQHDLIFSL; listed as Homo sapiens) [compound 89] | – | – |
| +++ (≥50 = +++) | 92 (YLQDYTDRV; listed as Homo sapiens) [compound 92] | – | – |
| +++ (≥50 = +++) | 98 (ALVDHLNVGV; listed as Homo sapiens) [compound 98] | – | – |
| +++ (≥50 = +++) | 121 (YMLEHVITL; listed as Homo sapiens) [compound 121] | – | – |
| ++++ (≥75% = ++++) | 99 (QMLEAIKALEV; listed as Homo sapiens) [compound 99] | – | – |
| +++ (≥50 = +++) | 104 (TLIQFTVKL; listed as Homo sapiens) [compound 104] | – | – |
